# Measured values as given in the nanobody polyreactivity screen of Harvey et al. (2022).
# Experiment: yeast display, Sf9 membrane polyspecificity reagent, FACS + sequencing; frameworks hold sequencing errors
# How it was run: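 Synthetic nanobody libraries on Saccharomyces cerevisiae BJ5465 were galactose-induced for 36–48 hours, stained 1 hour at 4 °C with 10% biotinylated, detergent-solubilized Sf9 membrane reagent and enriched on streptavidin microbeads. FACS then separated cells into low and high (top ~1%) gates by anti-HA (expression) and streptavidin (reagent binding) fluorescence. Genes were colony-PCR amplified, MiSeq 2 × 250 sequenced and CDR-length filtered. A clone's polyreactivity label is that of its gate of origin.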
row,Sequence,polyreactivity (PSR sort gate)
1,QVQLVESGGGLVQAGGSLRLSCAASGRILGYYAMGWYRQAPGKERDLVAAISRAGSTNYADSVKGRFTISRDNAKNTVYLQMNSLKAEDTAVYYCAARPYRRGYNYWGQGTQVTVSS,high polyreactivity
2,QVQLVESGGGLVQAGGSLRLSCAASGSIFRRNAMGWYRQVPGKERELVAAITWRGDRTYYADSVKGRFTISRDNAKNTVYLQMNSLKPEDTAVYYCNKLGRIQYDYWGQGTQVTVSS,high polyreactivity
3,QVQRVESGGGLVQAGGSLRLSCAASGGTFAFNTMGWYRQAPGIERELVADISSGGSTNYADSVKGRFTISRDNAKNTVYLQMNRLKPVDSAVYYGNGGWDILYLQGDLDYWGQGTQVTVSS,low polyreactivity
4,QVQIGESGGGLVQAGGSRRLSCAASGLTFYLYAMGWYRQAPGKERELVAAITTSGGSTYYADSVKGRFTISRDNAKNTVYLQMNSLKPEDTAVYDCATQGAIRGYGYWGQGTQVTVSS,high polyreactivity
5,QVHLVESGGGLDQAGGSLRLSCAASGRTFKRYAMGWYRQAPGKETELVAAISWSGTSTYYADSVKGRFTISRDNAKNTVYLQMNSLKPEDTALYFCNTPHRSSSVRSYGYWGQGTQVTVSS,high polyreactivity
6,QVQLVESGGGLVQAGGSLRLSCAASGRNFTSNTMGWYRQAPGTETELVAAITSSGGSMYYADSVKGRFTISRDNAKNTVYLQMNSLKPEDTAVYYCAADTIGYHYWYDYWGQGTQVTVSS,low polyreactivity
7,QVQLVESGGGLVQAGGSLRLSCAASGIISPFYAMGWYRPAPGNERELVADISTGGTTTYADSVKGRFTISRDNAKNTVYLKMNSLKPEDTAVYYCNAEVSLTYYWIVWASYDYWGQGTQVTVSS,low polyreactivity
8,QVQLVESGGGLVQAGGSLRLSCAASGRTFYKNTMGWYREAPGKEREMVATISQRGGSTYYADSVKGRFTISRDNAKNTVFLQMNSLKPEDTAVYYCYARHYYIWWRSPTRTAMNYWGQGTQVTVSS,high polyreactivity
9,QLQLVESGGGLVQAGGSLRLSCAASGYTFRFNAMGWYRQAPGKEREFVAAIDFGGAGTYYADSVKGRFTISRDNAKNTVYLQMNSLKPEDTAVYYCAADGQWYYAPFRGGDYENDYWGQGTQVTVSS,low polyreactivity
10,QVQLVESGGGLVQAGGSLRLSCAASGFTFSRNAMGWYRQAPGKERELVAAITWSGGRTYYADSVKGRFTISRDNAKNTVYLQMNSLKPEDTAVYYCAARKYHLRSAYDYWGQGTQVTVSS,low polyreactivity
11,QVQLVESGGGLVQAVGSLRLSCAASGRIFYPYAMGWYRQAPGKERELVAVITSGTGTYYADSVKGRFTISRDNAKNTVYLQMNSLKQEDTAVYYCAADRWYYRHRSSSYGYDYWGQGTQVTVSS,high polyreactivity
12,QVHLVESAGGLVQAGGSLRLSCAPSGSTFPLYVMGWYRQAPGKERELVAAIDWSGGSTYYADSVKGRFTISRDNAKNTVYLQMNRLKPEDSAVYYCNARYLRRGDYWGQGTQVTVSS,low polyreactivity
13,QVQLVESGGGLVQAGGSLRLSCAASGFIFVGNAMGWYRQAPGKERELVAAISSGTSTNYADSVKGRFTISRDNAKNTVYLQMNSLKPEDTAVYYCNAEVPATNEYTKRMDYWGQGTQVTVSS,low polyreactivity
14,QVQLVESGGGLVQAGGSLRLSCAASGRIFRWNAMGWYRQAPGKEREFVAAISWNGGRTYYADSVMGRFTISRDNAKNTVYLQMNSLKPEDPAVYYCAATHSVPDLLSGDYWGQGTQVTVSS,low polyreactivity
15,QVQLGESGGGLVQAGGSLRLSCAASGSIFRGYAMGWYRQAPGKGRELVAAISWSGASTYYADSVKGRFTISLDNAKNTVYLQMNSLKPEDTAVYYCAAVQWTGYPFDYWGQGTQVTVSS,high polyreactivity
16,QVQLVESGGGLVQAGGSLRLSCAASGGIFSWYDMGWYREAPGKERELVAAISWSGGSTYYADSVKGRFTISRDNAKHTVYLQMNSLKPEDTAVYYCAAYTADDYDYWGQGTQVTVSS,high polyreactivity

row,Sequence,polyreactivity (PSR sort gate)
1,QVQLVESGGGLVQAGGSLRLSCAASGFTFYYNAMGWYRQAPGKERELVAAITWDGGRTYYADSVKGRYTISRDNAKNTVYLQMNSLKTVDTAVYYCAAVEYSEHWDGYSWGEYYYWGQGTQVTVSS,high polyreactivity
2,QVQRVESGGGLVQAGGSLRISCAASGSITWYYSMGWYRQAPGKERELFAAISDSGGDKYYADSVKGRFTISRDNAKNTVYLQMNSLKPEDTAVYYCNARYSWYGTFGGDYWGQDTQVTVSS,low polyreactivity
3,QVQLVESGGGLVQAGGSLRLSCAASGSIFVVYAMGWYRQAPGKERELVAAISWGIGSTYYADSVKGRFTISRDNAKYTVYLQMNSLKPEDTAVYYCAAETDIVLYDYWGQGTQVTVSS,low polyreactivity
4,QVQLVESGGGLVQAGGSLRLSCAATGRIFRYYTMGWYRQAPGKERELVAAITSSSGSTYYADSVKGRFTISRDNAKNTVYLQMNSLKPEDTAVYYCNAVRYTTQTPNVDYGYWGQGTQVTVSS,high polyreactivity
5,QVQLVESGVCLVQAGGSLRLSCAASGRIFYYYTMGWYRQAPGKERELVAAITSGGSTYYADSVKGSFTISRDNAKNTVYLQMNSLKPEDTAVYYCNAEFDDKYDYWGQGTQVTVSS,low polyreactivity
6,QVQLVESGGGLVQAGGSLRLSCAASGFTFTAYAMGWYRQAPGKERELVAAISSGGSTYYADSVKGRFTISRDNAKNTVYLQMNSLKPEDTAVYYCAAVGVYTVKREYWGQGTQLTVSS,low polyreactivity
7,QVQLVESGGGLVQAGGSLRLSCAASGSTFQRNAMGWYRQAPGKERELVAVITRRGASTYYADSVKGRFTISRDNAKNTVYLQMKSLKPEDTAVYYCNKVPYGRDHHLLFDYWGQGTQVTVSS,high polyreactivity
8,QVLLLESGGGVVQAGGSHRLRCAASGRIFCTNTMGWYRQAPGKERELVAVISSSGDSTYYADSVKGRFTISRDNAKNTVYLQINSLKPEDTAVYYCAKGNNWISRLMDYWGQGTQVTVSS,low polyreactivity
9,QVQLVESGGGLVQAGGSLRLSCAASGFTFEKYAMGWYRQAPGHERELVASISWSGGRTRYADSVKGRFTISRDNAKNTVYLQMNSLTPEDTAVDYCAASYRYFGRSTVRYDYWGQGTQVTVSS,high polyreactivity
10,QVQLVESGGGLVQAGGSLLLSCAASGSIFRYYAMGWSRQAPGKERELVAAISSNGASTYYADSVKGRFTISRDNAKNTVYLQKNSLKPEVSGVYYCAARFRRAPGYYWGQGTQVTVSS,high polyreactivity
11,QVQLVESGGGLVQAGGSLRLSCAASGIIFISYDMGWSRQAPGKERELVARINWDGGSTYYADSVKGRFTISRDNAKNTVYLQMNSLKPEDTAVYYCAAGFVGTNYPVLGFSYEYWGQGTQVTVSS,low polyreactivity
12,QVQLVESGGGLVQAGGSLRLSCAASGFTFWFNAMGWYRQSRGTERELVPTIRRSGGTTYYADSVKGRFTISRDKAKNTVYLQMNSLKPEDTAVYYCAADDYYYPGTVYYFTPGYNYWGQGTQVTVSS,low polyreactivity
13,QVQLVESGGGLVQPGGSLRLSCAASGRTIGVYAMGWYRQAPGKERELVAAITTSGDSTYYADSVKGRFTISRDNAKNTVYLQMNSLKPEDTAVYYCAADYYYVYSSFGHYYWGQGTQVTVSS,low polyreactivity
14,QVQLVESGGGLVQAGGSLRLSCAASGIIFRSNAMGWYRQAAGNERELVAAISQRGGSTYYADSVKGRFTISRDNAKNTVYLQMNSLKPEDTAVYYCNALQRRYGGGGNDYWGQGTQVTVSS,high polyreactivity
15,QVQLVESGGGLVQAGGSLRLSCAASGWYRQAPGKERELVAAITYSGGSTYYADSVKGRFTISRDNAKNTVYLQMNSLKPEDTAVYYCAKQGLWIFVVVEMDYWGQGTQVTVSS,low polyreactivity
16,QVQLVESGGGLVQAGGSLRLSCAASGSTFNSYAMGWYRQAPGKERELVAAITSSVGSTYYADSVKGRFTISRDNAKNTVYLQMNSLKPEDTAVYYCAADYFSYWYFSGYDYWGQGTQVTVSS,low polyreactivity
